The record followed here is paper PMC5634629, “Heterodimerization of two pore domain K^+ channel TASK1 and TALK2 in living heterologous expression systems” (PLoS ONE, 2017).

The target in one experiment is T1, CFP-TALK2 (human, UniProt Q96T54-3 1-332).
T1 construct: human TALK2 (KCNK17), full-length cDNA NM_031460.3; The end of the tag is read from the order in the construct's name; also called KCNK17; source: HEK293, transiently transfected, in living cells; not shown: CFP, N-terminal, kept
T1 sequence (looked up): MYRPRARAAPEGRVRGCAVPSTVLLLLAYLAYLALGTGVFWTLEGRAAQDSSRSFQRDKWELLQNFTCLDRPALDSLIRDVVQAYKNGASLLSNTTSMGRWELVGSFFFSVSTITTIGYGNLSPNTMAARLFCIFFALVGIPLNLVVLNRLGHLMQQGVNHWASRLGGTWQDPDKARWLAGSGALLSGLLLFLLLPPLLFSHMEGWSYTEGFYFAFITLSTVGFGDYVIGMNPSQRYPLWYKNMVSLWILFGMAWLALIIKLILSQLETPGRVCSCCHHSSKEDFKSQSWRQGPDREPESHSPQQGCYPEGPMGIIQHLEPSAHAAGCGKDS
The experiment in a line: FRET or BRET; acceptor photobleaching FRET (CFP donor, YFP acceptor) in HEK293 cells, confocal microscope; cDNA ratio CFP:YFP 1:1; E_FRET = percent increase in CFP emission after YFP photobleaching. The following applies: partners not purified. For orientation: In BRET a luciferase serves as donor, and the signal depends on an acceptor being close.

The target of the next experiment is T2, CFP-TASK1 (human, UniProt O14649 1-394).
T2 construct: human TASK1 (KCNK3), full-length cDNA NM_002246.2; The end of the tag is read from the order in the construct's name; also called KCNK3; source: HEK293, transiently transfected, in living cells; not shown: CFP, N-terminal, kept
The description is as above. The conditions noted are these: partners not purified.

B1: TASK1-YFP (natural protein, human, UniProt O14649 1-394, looked up)
chain: MKRQNVRTLALIVCTFTYLLVGAAVFDALESEPELIERQRLELRQQELRARYNLSQGGYEELERVVLRLKPHKAGVQWRFAGSFYFAITVITTIGYGHAAPSTDGGKVFCMFYALLGIPLTLVMFQSLGERINTLVRYLLHRAKKGLGMRRADVSMANMVLIGFFSCISTLCIGAAAFSHYEHWTFFQAYYYCFITLTTIGFGDYVALQKDQALQTQPQYVAFSFVYILTGLTVIGAFLNLVVLRFMTMNAEDEKRDAEHRALLTRNGQAGGGGGGGSAHTTDTASSTAAAGGGGFRNVYAEVLHFQSMCSCLWYKSREKLQYSIPMIIPRDLSTSDTCVEQSHSSPGGGGRYSDTPSRRCLCSGAPRSAISSVSTGLHSLSTFRGLMKRRSSV
notes: human TASK1 (KCNK3), full-length cDNA NM_002246.2; The end of the tag is read from the order in the construct's name; also called KCNK3; source: HEK293, transiently transfected, in living cells; not shown: YFP, C-terminal, kept
Turning to B1, the results for the E_FRET with CFP-TALK2 and in the experiment with CFP-TASK1 were 7.8% and 9.8%, respectively.

B2: TALK2-YFP (natural protein, human, UniProt Q96T54-3 1-332, looked up)
chain: T1 sequence (looked up)
notes: human TALK2 (KCNK17), full-length cDNA NM_031460.3; The end of the tag is read from the order in the construct's name; also called KCNK17; source: HEK293, transiently transfected, in living cells; not shown: YFP, C-terminal, kept
As to B2, the E_FRET with CFP-TALK2 stood at 8.6%.
